From article doi:10.1101/682807
Several values for one entry are separate records, joined by “and”; a condition that tells them apart may be missing. Equal entries are not always repeated.

Assays:
[1] = biological target: HR4^Fei-0 (overexpressed in N. benthamiana) (A. thaliana); test: SDS-resistant dimers on SDS-PAGE immunoblot
[2] = biological target: RPP7b-3×FLAG (A. thaliana); test: native gel or EMSA

| stoichiometry N [1] | stoichiometry N [2] | Substance |
| --- | --- | --- |
| 2 | – | HR4^Fei-0 (overexpressed in N. benthamiana) (natural protein) |
| – | 7 and 6 | RPP7b-3×FLAG (natural protein) |
